The supplement of paper PMC6757056
± gives the standard deviation of the averaged measurements.

B1: library; a variant is named by its letters at N, in order (parent)
chain: GCUGUCACCGGAAUACCAGCAUCGUCUUGAUGCCCUUGGAAGUCCGGUCUGAUGAGUCCNNNNNGGACGAAACAGC

What was measured:
[1] = variants of: B1; experiment: FACS-Seq fitted mean relative fluorescence mCherry/BFP without ligand (log10 relative fluorescence); higher = higher reporter protein expression; conditions: HEK293T, ligand present: no
Summary of the method: (§1)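 After lentiviral transduction, HEK293T library cells bearing an mCherry ribozyme-switch reporter and an EF1α-BFP marker were enriched. They were then held for 48 h with or without ligand and sorted by mCherry/BFP into 6 bins, and each bin's genomic DNA was PCR-amplified, barcoded and MiSeq-sequenced. Fluorescence is expressed as a normalized fitted mean: the normal mean of log10(mCherry/BFP) bin counts, scaled to five spiked-in control ribozymes.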

[2] = variants of: B1; experiment: normalized RNA/DNA level with ligand (relative to sTRSVctl = 100) (log10 (% of sTRSVctl)); higher = less ribozyme self-cleavage, higher mRNA level; conditions: ligand concentration (+) RNA-Seq: 5 mM, HEK293T, reporter: mCherry (pCS4076), ligand present: yes
Summary of the method: (§2)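 Only sequences with at least 100 DNA reads were analyzed, from HEK293T cells transfected with 4 µg per 6-well well of ribozyme switch library plasmids 72 h before RNA extraction with EDTA. Any ligand was added 1 h before transfection. RNA level was defined as RNA over DNA reads, normalized to a spiked-in non-cleaving sequence or to the top sequences, then scaled and log-transformed. The top set was 25 sequences, and the scaling was ×100 followed by log10.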

[3] = variants of: B1; experiment: normalized RNA/DNA level without ligand (relative to sTRSVctl = 100) (log10 (% of sTRSVctl)); higher = less ribozyme self-cleavage, higher mRNA level; conditions: HEK293T, reporter: mCherry (pCS4076), ligand present: no
Summary of the method: as §2

[4] = variants of: B1; experiment: FACS-Seq fitted mean relative fluorescence mCherry/BFP with ligand (log10 relative fluorescence); ligand concentration (+) FACS-Seq: 1 mM; higher = higher reporter protein expression; conditions: HEK293T, ligand present: yes
Summary of the method: as §1

Variant | FACS-Seq fitted mean (log10) [1] | normalized RNA/DNA level with ligand (log10) [2] | normalized RNA/DNA level without ligand (log10) [3] | FACS-Seq fitted mean (log10) [4]
ACCAA | 0.759 ± 0.043 | 2.02 ± 0.082 | 1.74 ± 0.069 | 0.832 ± 0.016
ACCAG | 0.9579 ± 0.0021 | 1.93 ± 0.028 | 1.83 ± 0.059 | 1.02 ± 0.047
ACCAC | 1.02 ± 0.038 | 2 ± 0.055 | 2.006 ± 0.014 | 0.984 ± 0.066
ACCAU | 0.574 ± 0.037 | 1.993 ± 0.011 | 1.86 ± 0.02 | 0.605 ± 0.068
GCCAU | 0.669 ± 0.019 | 1.99 ± 0.077 | 1.88 ± 0.12 | 0.779 ± 0.05
AAUUA | 0.392 ± 0.024 | 1.973 ± 0.0011 | 1.63 ± 0.13 | 0.477 ± 0.006
AAUUU | 0.603 ± 0.084 | 1.98 ± 0.021 | 1.915 ± 0.0083 | 0.6371 ± 0.0013
AAUUC | 0.308 ± 0.094 | 1.981 ± 0.015 | 1.96 ± 0.033 | 0.335 ± 0.031
AAUUG | 0.229 ± 0.1 | 2.02 ± 0.12 | 1.75 ± 0.15 | 0.292 ± 0.011
CCAGU | 0.937 ± 0.067 | 1.974 ± 0.0042 | 1.9 ± 0.12 | 0.929 ± 0.058
CCAGC | 0.9205 ± 0.0079 | 1.96 ± 0.056 | 1.994 ± 0.008 | 0.864 ± 0.14
CCAGA | 0.765 ± 0.044 | 1.95 ± 0.15 | 1.86 ± 0.098 | 0.758 ± 0.085
CCCCC | 0.942 ± 0.16 | 2.0303 ± 0.00068 | 1.97 ± 0.032 | 0.862 ± 0.091
CCCCA | 0.614 ± 0.038 | 2.043 ± 0.0071 | 1.9 ± 0.11 | 0.52 ± 0.035
CCCCU | 0.771 ± 0.094 | 2 ± 0.042 | 1.951 ± 0.01 | 0.807 ± 0.053
CCAAA | 0.24 ± 0.12 | 1.97 ± 0.051 | 1.48 ± 0.06 | 0.619 ± 0.23
CCAAC | 0.72 ± 0.09 | 1.952 ± 0.012 | 1.92 ± 0.069 | 0.767 ± 0.018
CCAAU | 0.688 ± 0.1 | 1.95 ± 0.058 | 1.64 ± 0.14 | 0.7987 ± 0.0017
